B1: Hairpin Ribozyme (parent)
chain: GUCCUCUUUCACGUGCGCGUGAAAGAGAGAAGUGAACCAGAGAAACACACGUUGUGGUAUAUUACCUGGUA

Variants of: B1
Assay: self-cleavage, relative activity (ratio to wild type); higher = more cleavage; co-transcriptional

Variant	self-cleavage
U8A A44U	0.0969
U7C A28C	0.367
U7C A28U	0.514
U7G C46G	0.134
U8G C38A	0.165
U8G C38U	0.548
U7C U53C	0.677
U7G G54C	0.41
U8C G13U	0.529
U8C G13A	0.722
U7G U70A	0.673
U7C A43U	0.151
U8A G19C	0.553
U8A G19A	0.558
U8G C66U	0.412
U8A A23U	0.911
U8C A30U	0.0797
U8C A30G	0.144
U7G G68C	0.224
U7G G68A	0.3
U8A C50A	0.158
U8A C50U	0.311
U7G A26G	0.821
U8G G54U	0.37

Variant	self-cleavage
U8A A45C	0.158
U8A A45G	0.193
U8A A45U	0.198
U7G U8C	0.656
U7G U8A	0.942
U8C G57A	0.119
U7G G19C	0.592
U8G G40A	0.264
U8G G40C	0.111
U7C G21U	0.565
U8G A61G	0.0213
U7C G69C	0.17
U7G C38U	0.377
U8C G21C	0.114
U8C G21A	0.264
U7C G19U	0.68
U8A U70A	0.665
U8C G69A	0.327
U8C G69U	0.186
U8C C65A	0.788
U8G A45G	0.125
U8C A47U	0.224
U8A G69C	0.191
U8A G69A	0.375

Variant	self-cleavage
U8A G69U	0.213
U7C C46U	0.195
U7C C46A	0.224
U8G A64C	0.0997
U8G A64U	0.146
U7G A35G	0.916
U7G A35U	0.921
U8G A49G	0.264
U8G A49U	0.164
U8G A24G	0.632
U7G A44C	0.195
U7C G34A	1.17
U7C G34U	1.32
U7G U33G	0.194
U8A A35G	0.483
U8A A35U	0.459
U7G A61C	0.261
U8C G25U	0.32
U8C U60C	1.23
U8C U60A	0.554
U8C U60G	0.489
U8A G21C	0.504
U7G U60A	0.795
U7C A49G	0.478

Variant	self-cleavage
U9A A23C	0.501
U8C A41U	1.12
U8G U55A	0.193
U8G U55C	0.232
U7G G13U	0.632
U7C G13U	0.788
U7C G13A	0.615
U7G C48A	0.142
U8A C18U	0.779
U8A C18G	0.524
U7G A22U	0.59
U7C U67A	0.167
U7C U67C	0.215
U9A A31C	0.158
U9A A31U	0.0478
U8C C38U	0.245
U8C C38G	0.154
U8C A44U	0.142
U8C A44C	0.131
U8C A44G	0.0935
U7C C50U	0.523
U7C A71U	0.592
U8C A45G	0.149
U8G A36C	0.5

Variant	self-cleavage
U7C A31U	0.112
U7C A31G	0.525
U8A C38U	0.357
U8C U55A	0.16
U8A A39C	0.396
U8G A22G	0.676
U7G G32C	0.161
U8G G51A	0.739
U7C U58A	0.565
U8G C18U	0.678
U8G C18A	0.72
U8C C37U	0.347
U8A G68U	0.172
U7G G15C	0.836
U8A G25U	0.114
U8A G25A	0.432
U9A A22U	0.907
U8G A28G	0.843
U8A C37G	0.241
U8A C37U	0.56
U8A C37A	0.288
U7G C18A	1.01
U8A G15C	0.954
U8A C65A	0.63

Variant	self-cleavage
U8A C65U	0.258
U8A C65G	0.104
U7C C48G	0.145
U7C C48A	0.114
U8G G29C	0.141
U7C A47G	0.0534
U8A U14C	0.845
U8C C46A	0.102
U8C C50A	0.144
U8C C50G	0.119
U8G G34A	0.767
U8G G34C	1.19
U7G U53G	0.641
U7G U53A	0.967
U7G A39C	0.48
U8A C16U	0.788
U8C G17C	0.404
U8C G17U	0.554
U7G A36U	0.507
U7G A36G	0.828
U7C U33C	0.157
U7C U33G	0.129
U8A G42A	0.129
U8A G32A	0.141

Variant	self-cleavage
U8A G32U	0.166
U7G U20G	0.453
U8A A59C	0.165
U8A A36C	0.412
U7G G42A	0.218
U7C C66G	0.0988
U7C C66A	0.217
U8C G68C	0.238
U7C U8A	0.615
U7C U8C	0.52
U8G A47U	0.168
U7G A59U	0.116
U7G A59G	0.0757
U8G G25A	0.21
U8G C65U	0.363
U8G C65A	0.97
U7C U52G	0.653
U7C U52C	0.528
U8C G40U	0.164
U8G U53G	0.705
U9A A26G	0.825
U7C A24C	1.04
U7C A24U	0.707
U7C U20C	1.14

Variant	self-cleavage
U7C U20A	0.82
U8A G34A	0.98
U8A C12U	0.747
U7G A11C	0.481
U7G A11G	0.734
U7G A11U	0.58
U8C G29U	0.081
U8C G29A	0.112
U8A G51C	0.602
U7C A45U	0.231
U8C A64G	0.443
U8C A64U	0.104
U7C G17U	0.892
U7C A61G	0.164
U7C A61U	0.175
U8G C10G	0.676
U9A A30U	0.195
U8C G34A	1.18
U7G U58C	0.813
U8C A43C	0.126
U8A U62C	0.183
U8C U53C	0.766
U8A U9C	0.377
U7C U70G	0.877

Variant	self-cleavage
U8A G27A	0.236
U8C A23U	0.841
U8C A23C	0.68
U8C A59G	0.203
U8C A59C	0.183
U8A A71U	0.631
U7G G57A	0.149
U8A A61G	0.0847
U8A A24U	0.571
U8A A24C	0.626
U8G G42A	0.156
U8A A43C	0.153
U8C C12G	0.229
U8A C46G	0.0541
U7C U60C	0.905
U7C A44G	0.0315
U7C A44C	0.0427
U7C U9A	0.607
U8G G15A	0.897
U8G G15C	0.639
U7C C38G	0.202
U8C U52A	0.676
U8A U60G	0.439
U8A U60A	0.755

Variant	self-cleavage
U8C G19A	0.302
U7C C12G	0.758
U8C C10G	0.114
U8G G21A	0.693
U8G G21C	0.401
U7C A35U	0.523
U7C A35G	0.931
U7G U62G	0.223
U7G A43U	0.123
U7G A43G	0.023
U8A A30U	0.0488
U7G C50U	0.371
U7G C50A	0.167
U8A A31C	0.0591
U7G G27A	0.369
U8C G56U	0.167
U8G A23C	1.21
U7C A30C	0.121
U7C A30U	0.257
U8C A49U	0.244
U8C A49G	0.347
U8G A43G	0.132
U8A C10A	0.458
U8A A22C	0.594

Variant	self-cleavage
U8A G13U	0.551
U8A G13C	0.687
U8A G13A	0.637
U8C C66G	0.0616
U8C G32C	0.0916
U7G A30C	0.0485
U7G G56C	0.0943
U7G G56A	0.151
U7C C10G	0.597
U8C U9A	0.266
U8C U9C	0.275
U7C C65A	0.684
U7C A41C	1.01
U7C A36G	0.925
U7C A36U	0.466
U7C U62C	0.196
U7C U63C	0.256
U8C U63A	0.0901
U8G U20G	0.614
U8G U20A	0.353
U7C A59G	0.088
U7G A23G	0.752
U7G A23C	0.624
U7G G40U	0.214

Variant	self-cleavage
U8G U62C	0.332
U8G U62A	0.0946
U8A G54C	0.284
U8A A28C	0.385
U8A A28U	0.613
U7C U14A	0.808
U8G G19C	0.36
U8G A26U	0.281
U8G A26C	0.25
U7G A24C	0.677
U7G A24U	0.685
U9A A35C	0.69
U7G G21U	0.453
U7G G21A	0.499
U8G A31G	0.47
U8G A31U	0.112
U8C G42A	0.177
U8G C16A	0.648
U8G C16G	0.395
U8G C16U	0.916
U8C U67C	0.159
U8C U67G	0.226
U8C A71G	0.974
U8C A61U	0.182

Variant	self-cleavage
U8C A61C	0.0941
U7C G56C	0.122
U7C G56A	0.184
U8G C46A	0.134
U8G C46U	0.195
U8G C46G	0.128
U8A G40C	0.156
U7C G40U	0.163
U8G A41U	1.07
U8G A41G	0.673
U8G C50U	0.327
U8A U63A	0.111
U8A G56U	0.134
U8A G56C	0.196
U8A U67G	0.237
U7G C37A	0.335
U7G G51C	0.908
U8C A11U	0.252
U7C G54A	0.525
U8G A44G	0.148
U8G A44C	0.139
U8G A44U	0.184
U7C G29C	0.131
U8A G17C	0.63

Variant	self-cleavage
U7G U55A	0.225
U7G U55C	0.152
U7G A49G	0.421
U7C G15C	0.948
U7C G15U	1.05
U8G A59G	0.121
U8G A59U	0.188
U8A U20A	0.479
U8A U20C	0.928
U7G C66G	0.0969
U8G G17C	0.23
U7C A23U	0.694
U7C A23G	0.6
U8A A26G	0.606
U8G A35G	0.667
U7C G32C	0.141
U7G U67G	0.283
U7C U55C	0.418
U7C U55G	0.344
U7C U55A	0.167
U7C G57C	0.107
U7C G57A	0.153
